According to the RNAGym collection of RNA variant scans (doi:10.1073/pnas.2313332121):
Variants at the floor of the assay were thinned out.

B1: TPR 5TU (parent)
chain: GGAUCUUCUCGAUCUAACAAAAAAGACAAAUCUGCCACAAAGCUUGAGAGCAUCUUCGGAUGCAGAGGCGGCAGCCUUCGGUGGCGCGAUAGCGCCAACGUUCUCAACUAUGACACGCAAAACGCGUGCUCCGUUGAAUGGAGUUUAUCAUG

Variants of: B1
Assay: polymerase ribozyme fitness, log enrichment relative to wild type (log ratio); higher = more active; in vitro selection for triplet polymerase activity
Summary of the method: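 Each subunit of a heterodimeric triplet polymerase ribozyme was mutagenized into a library by PCR, transcribed, and subjected to one round of in vitro selection, run in triplicate. Libraries were annealed with a biotinylated primer, the partner subunit and triplets, incubated frozen at −7 °C, and extended constructs were gel-excised, captured on streptavidin beads and recovered by RT-PCR. Input and output libraries were sequenced on Illumina, keeping genotypes with ≥10 input reads and ≥1 read per output. Fitness is log base 2 of genotype enrichment divided by wild-type enrichment, from inverse-variance-weighted replicate averages.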

Row | Variant | polymerase ribozyme fitness (log ratio)
1 | U55G A89U C132G | -3.98
2 | U55G G67C U78G G83U C93A U102A A121C | ≤ -4.2
3 | U56A C57U C96U | -0.285
4 | C54A C57G C87U A150G | -3.99
5 | U53G G83U G86A U104C | ≤ -4.2
6 | U53G G59C U61A G88C G94U | ≤ -4.2
7 | C54G C75G G86U G92C G124U C125A A137C U151C | ≤ -4.2
8 | C54A G92A | ≤ -4.2
9 | C54G A97G | -0.818
10 | C54G U146G | -2.99
11 | U55A C85G C114A A142C U151A | -4.19
12 | U55A G58U C93G | -3.78
13 | U55G A89G G94A A119U | -1.9
14 | U53G C76A U134A | ≤ -4.2
15 | C54A C95U | -2.22
16 | U55G G68A | -3.69
17 | U55G G68U | -3.91
18 | C54A G83U | -1.19
19 | U55A C96G G143A | -2.1
20 | C54U C75G | -3.81
21 | C54U G68U U82A G94A A97C G117A A138C G141A | ≤ -4.2
22 | C54U G92A | -3
23 | C54U G92U | -0.757
24 | C54U A89C C131U | 0.237

Row | Variant | polymerase ribozyme fitness (log ratio)
25 | U55G C75G C76G G84U C118A U139C | ≤ -4.2
26 | C54A U55A | -1.91
27 | C54A U56A | -1.31
28 | U55A A137G G141A | -1.96
29 | C54U C96U | -0.41
30 | C54U C96G | -0.994
31 | U55A C57G A89U G136C | -3.69
32 | C54G G59A C76A C85G A121C C123A U127G G140C G143U A150C | ≤ -4.2
33 | C54G C75U | -1.86
34 | C54G C75A | ≤ -4.2
35 | U55G G94A | -1.43
36 | C54A A91G A120G | -3.57
37 | U56A C93U U127C | -2.73
38 | U55C U127A U139G | -3.31
39 | U53G C69A C99U C118A | ≤ -4.2
40 | C54U C72U A91U C95G A98C C103A A119G A121G | ≤ -4.2
41 | U53G C87A A120U A142U U146A | ≤ -4.2
42 | U56A A73U C87A A142C | ≤ -4.2
43 | U55A C87U C93U | -4.13
44 | C54U G58A A64C G71A | ≤ -4.2
45 | U55C C85A A91C G126A | -4.06
46 | C54U A115U | -2.4
47 | U55A C96G | -1.04
48 | U55A C96A | -1.21

Row | Variant | polymerase ribozyme fitness (log ratio)
49 | U55A A66U C79U G80C C87G C116U U145G | ≤ -4.2
50 | C54U G86C | -3.47
51 | U55A G141C | -0.199
52 | U55A G83A G124A | -0.748
53 | U55A G67C C85A G86U G124U | ≤ -4.2
54 | C54U A66U C85U | ≤ -4.2
55 | C54A U55A U77G A121C A137U | ≤ -4.2
56 | C54G A89C C123G C131A | ≤ -4.2
57 | U56A C99G G140U | -3.99
58 | U55A C76A | -0.81
59 | U55G G59A G83A A98C C116G U127G | -4.04
60 | C54G G94A | -1.68
61 | C54A C96U | -1.43
62 | U55A G92A | -2.69
63 | U55A U146G | -0.637
64 | U55A U146A | -0.393
65 | C54G C76A C93G C123U | ≤ -4.2
66 | C54U C93A A110G A137G G140C | -4.1
67 | U56A C57A C85U C87U U144A U146G | ≤ -4.2
68 | U53G G141C | -2.53
69 | C54U G71C C116U G136A U146C | -3.51
70 | U53G U61A A97G A113U | -4.18
71 | U55A A107C | ≤ -4.2
72 | U55G G86U A89G A121C A147U | -3

Row | Variant | polymerase ribozyme fitness (log ratio)
73 | C54U C93U C105G G126C | -2.01
74 | U55A G71U G117A | -3.07
75 | C54U G84A G92U U144A | -1.38
76 | U55G G84A C118U | -0.685
77 | C54U G59C G83A G117U | -0.252
78 | C54U G83U | -0.319
79 | C54U G83A | -0.655
80 | U55A U61C G94U | ≤ -4.2
81 | U55A U82G C96G C116U G140C | -4.17
82 | U56A C57A C85G | -0.79
83 | U55A C79U G83A C93A A97C A138U | ≤ -4.2
84 | U55A G71A G81C C95G C125U | ≤ -4.2
85 | C54U A91C G92U C105U G133U | ≤ -4.2
86 | C54U U56A G133C | -1.7
87 | U53G G58C C95G A122U | ≤ -4.2
88 | C54G U55A G58U | 0.0801
89 | C54G C95G A107U C108G G143A U145C | ≤ -4.2
90 | C54U C87U C105A | -2.09
91 | U56A A73U C87G C99G | ≤ -4.2
92 | C54G C95G | -2.56
93 | C54G G68U C87A U104G | ≤ -4.2
94 | U55A C76G G100C U109A A120G | ≤ -4.2
95 | U55A G94U G117U C131A G136A | ≤ -4.2
96 | U55G G59A | -2.25

Row | Variant | polymerase ribozyme fitness (log ratio)
97 | U55G G83U C95U A147C | -1.88
98 | U55A A64G U135A | ≤ -4.2
99 | C54U G59C A60U A66C | ≤ -4.2
100 | U55A C87G U101G G143A | ≤ -4.2
101 | U56A C105U A121C G133U G140U | ≤ -4.2
102 | U55A U56A C69U C79U G86A A91U A106C A121G C125U A142C | ≤ -4.2
103 | C54A G70A C95U A120G | -3.62
104 | U55C C95U C103A | -1.54
105 | C54U G59A G70C | -2.48
106 | U55A G59C C103U U104G | -3.29
107 | C54G U55A G58A C99G C132A | ≤ -4.2
108 | C54U U77G A121C | ≤ -4.2
109 | C54U U104G | -1.21
110 | U55G G83A A115C C123U G136U | -2.92
111 | U53G G68A | ≤ -4.2
112 | U53G C79A C87A U102G | ≤ -4.2
113 | U55A G62U C63G C87U A98U A120U C149G | ≤ -4.2
114 | C54U A122U | 0.0261
115 | U55A C69G U146A | -3.62
116 | C54A A64C C85A G92U A121U C125G U134G U139G | ≤ -4.2
117 | U55A G81A | -1.9
118 | U55A C93A | -2.96
119 | U55A C95A G143A U144C | -3.04
120 | U53G C63U G80C G81C G84U G100U | ≤ -4.2

Row | Variant | polymerase ribozyme fitness (log ratio)
121 | U56A C132G A137U | -4.03
122 | U55A G88U | -4.14
123 | U55C G74C G124A | -4.12
124 | U56A C95A | -0.487
125 | C54A C87G A98G | ≤ -4.2
126 | U56A C105U C116G | -0.192
127 | U55A A98U | -0.0691
128 | C54G A89U A147C | -2.1
129 | U53G C93U | -1.92
130 | U55A C149U | -1.55
131 | U55A G62A C96U | -2.14
132 | U55A C125A G141A | -4.12
133 | C54G C76U U77C C87A G126U | ≤ -4.2
134 | C54A U102A | -2.71
135 | U56A C63U A64U G84A G128A | ≤ -4.2
136 | C54G C93A | -4.19
137 | C54U A60C C99U | -3.17
138 | U55A C85U C103U | -0.7
139 | U55A U77G U134C U139C | ≤ -4.2
140 | C54A U144A | -1.74
141 | C54G C63G C93U A115U C149G | ≤ -4.2
142 | C54A G94C G141A | -3.13
143 | U55A U148C | -1.05
144 | C54U A66G C72U G81C C96A A107G G133U U145A | ≤ -4.2

Row | Variant | polymerase ribozyme fitness (log ratio)
145 | C54A C85U C149G G152U | -4.15
146 | U55G G80A C87U | -0.574
147 | C54G G86U | -3.24
148 | U55G U61G C76U C87A U101G U134G G136U | ≤ -4.2
149 | U55A G84A G143A | -0.776
150 | U55A C85A C125A | -1.75
151 | U55A G70C G92U A119U | -3.25
152 | U55A A73U C99U U145C | ≤ -4.2
153 | U55G A98G | -0.84
154 | U55A U56A A66C G70C C108U | ≤ -4.2
155 | U55G G92C | -0.157
156 | U55G G92A | -3.13
157 | C54U C103A | -2.22
158 | U55A A91U G136A | ≤ -4.2
159 | C54G C95A C118G | -2.03
160 | C54A U82C U146C | -0.537
161 | C54G G133C | -2.55
162 | C54A C96U A113G | -3.11
163 | C54A A115C | -1.87
164 | U55G U56A C93A C114A | ≤ -4.2
165 | C54U G81A G86U C105A A147U | -4.16
166 | C54A A91U U109C G140U U146C | ≤ -4.2
167 | U55A U56A A97U | -0.565
